Laboratory results taken from paper PMC5093063.

How the values were obtained:
Assay in all cases: SEC
[1] = target: Chimeric IN F-F-H (NTD and CCD of FIV, CTD of HIV-1) (FIV (Petaluma) | HIV-1) (UniProt P12497)
[2] = target: Chimeric IN F-H-F (NTD and CTD of FIV, CCD of HIV-1) (FIV (Petaluma) | HIV-1) (UniProt P12497)
[3] = target: Chimeric IN F-H-H (NTD of FIV, CCD and CTD of HIV-1) (FIV (Petaluma) | HIV-1) (UniProt P12497)
[4] = target: Chimeric IN H-F-F (NTD of HIV-1, CCD and CTD of FIV) (HIV-1 | FIV (Petaluma)) (UniProt P12497)

## Chimeric IN F-F-H (NTD and CCD of FIV, CTD of HIV-1) (from UniProt P12497 211-289) (enzyme)
[1]
  stoichiometry N: 2

## Chimeric IN F-H-F (NTD and CTD of FIV, CCD of HIV-1) (from UniProt P12497 53-210) (enzyme)
[2]
  stoichiometry N: 2

## Chimeric IN F-H-H (NTD of FIV, CCD and CTD of HIV-1) (from UniProt P12497) (enzyme)
[3]
  stoichiometry N: 2

## Chimeric IN H-F-F (NTD of HIV-1, CCD and CTD of FIV) (from UniProt P12497 2-52) (enzyme)
[4]
  stoichiometry N: 2
